Assay results reported in publication PMC8291384 (Nature structural & molecular biology, 2020).

Biological target: T1, mouse RAG1 (aa 265-1040) E962Q, His6-MBP fusion (mouse, UniProt P15919 265-1040, E962Q)
T1 sequence (looked up): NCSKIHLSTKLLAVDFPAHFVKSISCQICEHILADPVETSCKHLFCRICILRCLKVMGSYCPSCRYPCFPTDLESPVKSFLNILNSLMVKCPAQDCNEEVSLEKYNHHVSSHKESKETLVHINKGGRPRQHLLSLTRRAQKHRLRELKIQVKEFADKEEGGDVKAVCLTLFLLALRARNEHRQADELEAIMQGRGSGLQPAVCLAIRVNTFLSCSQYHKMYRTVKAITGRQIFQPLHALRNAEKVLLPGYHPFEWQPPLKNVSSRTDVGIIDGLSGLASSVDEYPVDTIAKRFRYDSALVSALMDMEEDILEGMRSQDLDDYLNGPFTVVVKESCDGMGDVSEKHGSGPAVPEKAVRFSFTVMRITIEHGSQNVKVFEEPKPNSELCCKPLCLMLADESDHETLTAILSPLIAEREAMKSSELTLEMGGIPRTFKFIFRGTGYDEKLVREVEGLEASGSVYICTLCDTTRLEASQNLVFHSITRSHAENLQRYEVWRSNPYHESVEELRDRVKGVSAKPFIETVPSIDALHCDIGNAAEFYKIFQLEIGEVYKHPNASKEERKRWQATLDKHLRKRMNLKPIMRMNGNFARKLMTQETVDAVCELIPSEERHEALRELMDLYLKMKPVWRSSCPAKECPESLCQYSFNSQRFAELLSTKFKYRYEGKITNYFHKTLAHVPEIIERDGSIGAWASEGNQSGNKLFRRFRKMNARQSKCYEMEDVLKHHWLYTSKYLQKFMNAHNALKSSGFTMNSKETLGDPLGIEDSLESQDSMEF
Experiment: cryo-EM structure

B1: mouse RAG2 (aa 1-520) T490A, His6-MBP fusion (domain or fragment, UniProt P21784 1-520, looked up)
chain: MSLQMVTVGHNIALIQPGFSLMNFDGQVFFFGQKGWPKRSCPTGVFHFDIKQNHLKLKPAIFSKDSCYLPPLRYPATCSYKGSIDSDKHQYIIHGGKTPNNELSDKIYIMSVACKNNKKVTFRCTEKDLVGDVPEPRYGHSIDVVYSRGKSMGVLFGGRSYMPSTQRTTEKWNSVADCLPHVFLIDFEFGCATSYILPELQDGLSFHVSIARNDTVYILGGHSLASNIRPANLYRIRVDLPLGTPAVNCTVLPGGISVSSAILTQTNNDEFVIVGGYQLENQKRMVCSLVSLGDNTIEISEMETPDWTSDIKHSKIWFGSNMGNGTIFLGIPGDNKQAMSEAFYFYTLRCSEEDLSEDQKIVSNSQTSTEDPGDSTPFEDSEEFCFSAEATSFDGDDEFDTYNEDDEDDESVTGYWITCCPTCDVDINTWVPFYSTELNKPAMIYCSHGDGHWVHAQCMDLEERTLIHLSEGSNKYYCNEHVQIARALQAPKRNPPLQKPPMKSLHKKGSGKVLTPAKKS
B1: binds.
